# Assay results reported in article PMC9881219, “The NTPase activity of the double FYVE domain–containing protein 1 regulates lipid droplet metabolism” (The Journal of Biological Chemistry, 2022).
# Positions count from the first letter of the chain named. Names may count otherwise.
# B1: MBP-DFCP1 (112-415), WT NTPase domain of mouse DFCP1 (domain or fragment, UniProt Q810J8 112-415, looked up)
# chain: NKRRHPITVYLVSKVQESLEGEEMDEETKRKKMTERVVSFLLVDENEEIQVTNEEDFIRKLDCKPDQHLKVVSIFGNTGDGKSHTLNHTFFYGREVFKTSPAQESCTVGVWAAYDPVHKVAVIDTEGLLGATVNLSQRTRLLLKVLAISDLVIYRTHADRLHNDLFKFLGDASEAYLKHFTKELKATTARCGLDVPLSTLGPAVIIFHETVHTQLLGSDHPSEAPEKLIQDRFRKLGRFPEAFSSIHYKGTRTYNPPTDFSGLRRALEQLLENNTTRSPRHPGVIFKALKALSDRFSGEIPDDQ
# notes: Mouse DFCP1, UniProt Q810J8, residues 112-415 (NTPase domain, 98.8% identical to human DFCP1), in pMal-c2e; MBP was removed with TEV protease only after the SEC step, for the nucleotide hydrolysis assays; also called WT (112-415); DFCP1 NTPase domain; source: E. coli Rosetta (DE3), purified (amylose resin, Superdex 200 SEC); not shown: MBP, N-terminal, kept
# B2: MBP-DFCP1 (112-415) K193A (domain or fragment, mouse, UniProt Q810J8 112-415, looked up)
# chain: B1 chain with K82A
# notes: Mouse DFCP1, UniProt Q810J8, residues 112-415 (NTPase domain) with K193A, in pMal-c2e; also called KA; K193A NTPase domain; source: E. coli Rosetta (DE3), purified (amylose resin, Superdex 200 SEC); not shown: MBP, N-terminal, kept
# B3: MBP-DFCP1 (112-415) K193A/R266Q (domain or fragment, mouse, UniProt Q810J8 112-415, looked up)
# chain: B1 chain with K82A, R155Q
# notes: Mouse DFCP1, UniProt Q810J8, residues 112-415 (NTPase domain) with both K193A and R266Q, in pMal-c2e; also called KARQ; KA/RQ; source: E. coli Rosetta (DE3), purified (amylose resin, Superdex 200 SEC); not shown: MBP, N-terminal, kept
# B4: MBP-DFCP1 (112-415) R266Q (domain or fragment, mouse, UniProt Q810J8 112-415, looked up)
# chain: B1 chain with R155Q
# notes: Mouse DFCP1, UniProt Q810J8, residues 112-415 (NTPase domain) with R266Q, in pMal-c2e; R266Q is a cancer-related mutation found in human patients (endometrial and colorectal cancers); Here it was introduced into the mouse NTPase domain by mutagenesis; also called RQ; RQm/RQd (monomeric/dimeric states); source: E. coli Rosetta (DE3), purified (amylose resin, Superdex 200 SEC); not shown: MBP, …
# B5: full-length FLAG-DFCP1 (human double FYVE domain-containing protein 1) (natural protein, UniProt Q9HBF4 1-777, looked up)
# chain: MSAQTSPAEKGLNPGLMCQESYACSGTDEAIFECDECCSLQCLRCEEELHRQERLRNHERIRLKPGHVPYCDLCKGLSGHLPGVRQRAIVRCQTCKINLCLECQKRTHSGGNKRRHPVTVYNVSNLQESLEAEEMDEETKRKKMTEKVVSFLLVDENEEIQVTNEEDFIRKLDCKPDQHLKVVSIFGNTGDGKSHTLNHTFFYGREVFKTSPTQESCTVGVWAAYDPVHKVAVIDTEGLLGATVNLSQRTRLLLKVLAISDLVIYRTHADRLHNDLFKFLGDASEAYLKHFTKELKATTARCGLDVPLSTLGPAVIIFHETVHTQLLGSDHPSEVPEKLIQDRFRKLGRFPEAFSSIHYKGTRTYNPPTDFSGLRRALEQLLENNTTRSPRHPGVIFKALKALSDRFSGEIPDDQMAHSSFFPDEYFTCSSLCLSCGVGCKKSMNHGKEGVPHEAKSRCRYSHQYDNRVYTCKACYERGEEVSVVPKTSASTDSPWMGLAKYAWSGYVIECPNCGVVYRSRQYWFGNQDPVDTVVRTEIVHVWPGTDGFLKDNNNAAQRLLDGMNFMAQSVSELSLGPTKAVTSWLTDQIAPAYWRPNSQILSCNKCATSFKDNDTKHHCRACGEGFCDSCSSKTRPVPERGWGPAPVRVCDNCYEARNVQLAVTEAQVDDEGGTLIARKVGEAVQNTLGAVVTAIDIPLGLVKDAARPAYWVPDHEILHCHNCRKEFSIKLSKHHCRACGQGFCDECSHDRRAVPSRGWDHPVRVCFNCNKKPGDL
# notes: Human DFCP1 (ZFYVE1), UniProt Q9HBF4, full length; A TEV site lies between FLAG and DFCP1; no cleavage is described for this protein; The domain diagram gives 1-777 for the full-length protein; also called FL DFCP1; FL hsDFCP1; not shown: FLAG, N-terminal, kept
# Columns and labels:
# [1] = target: the molecule itself; assay: SEC; MBP-DFCP1 (112-415) constructs on HiLoad 26/600 Superdex 200 pg; 25 mM Tris pH 8.0, 150 mM NaCl, 1 mM MgCl2, 1 mM DTT; monomer and dimer peaks
# [2] = target: the molecule itself; assay: SEC; full-length FLAG-DFCP1 on Superose 6; 25 mM Tris pH 8, 150 mM NaCl, 1 mM DTT, 1 mM MgCl2; monomer and dimer peaks
Protein,binding result [1],binding result [2]
B1,binds,
B2,binds,
B3,binds,
B4,binds,
B5,,binds
